For experiment [1], the target named is T1, PAR1 (Homo sapiens, UniProt P25116).
T1 sequence (P25116 22-425): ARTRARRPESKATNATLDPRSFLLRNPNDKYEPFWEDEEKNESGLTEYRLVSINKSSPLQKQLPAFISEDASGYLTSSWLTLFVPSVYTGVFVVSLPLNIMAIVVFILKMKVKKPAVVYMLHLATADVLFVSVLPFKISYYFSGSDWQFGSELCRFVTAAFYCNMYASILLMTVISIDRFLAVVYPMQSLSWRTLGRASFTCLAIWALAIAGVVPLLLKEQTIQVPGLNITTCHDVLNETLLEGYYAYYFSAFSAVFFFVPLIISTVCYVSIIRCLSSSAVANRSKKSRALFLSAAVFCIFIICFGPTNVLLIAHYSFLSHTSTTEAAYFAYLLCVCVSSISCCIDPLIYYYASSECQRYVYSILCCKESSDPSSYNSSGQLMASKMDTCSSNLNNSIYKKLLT
As to the kind of experiment: ELISA binding of purified MBP clones to SF9 membranes expressing PAR1 or muscarinic M1 receptor. The arrangement: expressed in transfected cells; host or cells: membranes of Sf9 insect cells infected with ThR/pBluebac recombinant virus. As to conditions: for binding affinity for PAR1 (in words): purified MBP clones, SF9 membranes. The method, then: To identify high affinity peptides that bind PAR1, membranes prepared from mammalian cells (Chinese hamster ovary) overexpressing PAR1 were panned with the G11 peptide library. ELISA binding affinity results of selected clones are shown in FIG. 9 for their binding to membranes prepared from SF9 cells expressing either PAR1 or the Gq-coupled muscarinic M1 receptor. To quantitate the binding, purified MBP clones were analyzed using ELISA methods in which the secondary antibody was conjugated to HRP. The binding for the control MBP-Gq fusion protein is shown. The data are the average of two separate experiments done in duplicate.

Experiment [2] concerns the target T1, PAR1. As to the kind of experiment: Binding of MBP-Gαq to purified, reconstituted activated PAR1 (ELISA). The arrangement: made in house; host or cells: Sf9 insect cells infected with ThR/pBluebac recombinant virus, purified on an anti-PAR1 monoclonal antibody column. Conditions: purified reconstituted PAR1 with thrombin receptor activating peptide. The procedure:
Microtiter wells were coated with purified, reconstituted PAR1 in the presence of […] thrombin receptor activating peptide, as described above in Example 6. Purified maltose binding protein-Gαq (MBP-Gαq) was added at the concentrations indicated in FIG. 11 and incubated one hour on a shaker at 4° C. The wells were rinsed and then probed with a rabbit anti-maltose binding protein antibody, followed by alkaline phosphatase conjugated secondary antibodies, as described above. Substrate was added and the color was allowed to develop about 20 minutes. Absorbance at 405 nm was measured and dose-response curves were calculated using GraphPad Prism (version 2.0). See results in FIG. 11.

Experiment [3] addresses T2, rhodopsin (Bos taurus, UniProt P02699).
T2 construct: Bovine rod outer segments (rhodopsin-containing membranes) were prepared from fresh retinas; from tissue; host or cells: bovine retina, rod outer segment membranes (EDTA- and urea-washed)
Briefly: "extra MII" assay: stabilization of metarhodopsin II. In kind it is biochemical, bovine. An excerpt: Rhodopsin can be measured spectrophotometrically in many of its conformational states. The high affinity, biologically active rhodopsin state can be easily differentiated from its precursor, MI, by the “extra” MII assay. See Example 35. This assay relies on the observation that under conditions of high pH and low temperature, MII is stabilized in the presence of Gt and can be spectrophotometrically measured. The ability of the C-terminal peptide to stabilize Meta II in the same manner as the heterotrimeric Gt, provides the tools to investigate the structural basis of the interaction of G proteins with the agonist binding sites of activated receptors.
For the “extra MII” assay, EDTA-washed rhodopsin (Example 5; 5 μM) is incubated in a 50 mM HEPES buffer, pH 8.2, with 100 mM NaCl, 1 mM MgCl2, and 1 mM DTT at 5.3° C., in the absence or presence of varying concentrations of Gt340-350 analogs or Gt. The sample is maintained at 5.4° C. using a water-jacketed and thermostated circulator cuvette holder in an SLM Aminco DW2000 spectrophotometer at 390 and 440 nm. A flash of light bleaching 10% of the rhodopsin is presented and after a 1 min incubation, a second spectrum is measured and the difference in spectrum calculated. “Extra” MII is calculated as the difference between the absorbance at 390 and 440. Dose response curves of MII stabilization by αt340350 (λ), mutant α340-350K341L(ν), and heterotrimeric Gt (v) were analyzed by non-linear regression using the program GraphPad PRISM and are shown in FIG. 23.
EDTA-washed rhodopsin (5 μM) was incubated in a 50 mM HEPES buffer, pH 8.2, with 100 mM NaCl, 1 mM MgCl2, and 1 mM DTT at 5.3° C., and “extra” MII was measured. For compounds that enhanced MBP-8 binding over 25% using the color coded readout, dose studies were performed to generate EC50 curves. Table XXII below provides the calculated EC50 for metarhodopsin II stabilization of each compound.

In experiment [4] the target is T3, light-activated rhodopsin (Bos taurus, UniProt P02699).
T3 construct: Bovine rod outer segments (rhodopsin-containing membranes) were prepared from fresh retinas; from tissue; host or cells: bovine retina, rod outer segment membranes (EDTA- and urea-washed)
T3 sequence (P02699 whole entry): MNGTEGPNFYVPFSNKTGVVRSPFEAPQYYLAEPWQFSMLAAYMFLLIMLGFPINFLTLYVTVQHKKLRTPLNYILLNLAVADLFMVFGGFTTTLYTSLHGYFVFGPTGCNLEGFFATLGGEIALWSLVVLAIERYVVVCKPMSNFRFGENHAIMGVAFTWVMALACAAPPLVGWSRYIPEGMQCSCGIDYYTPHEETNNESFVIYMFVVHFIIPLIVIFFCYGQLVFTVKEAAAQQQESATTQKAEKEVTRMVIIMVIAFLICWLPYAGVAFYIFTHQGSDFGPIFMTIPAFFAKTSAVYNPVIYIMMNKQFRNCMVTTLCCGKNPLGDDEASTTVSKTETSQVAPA
Briefly: Competition of heterotrimeric Gt with MBP high affinity peptide fusion proteins for rhodopsin. The experiment is classed as binding, bovine. As to conditions: 1 μM heterotrimeric Gt. The procedure:
When light-activated rhodopsin was screened for peptides based on the C-terminus of Gt, a large number of high-affinity sequences were obtained. Binding of MBP fusion proteins containing the high affinity peptide from the library (sequences from clones 8, 9, 10, 18, 23, 24, as well as pELM17 which encodes the wild-type peptide sequence, and pELM6 which contains no peptide; MBP-8, MBP-9, MBP-10, MBP-18, MBP-23, MBP-24, MBP-pELM17) were assessed for their ability to bind rhodopsin (0.5 μg rhodopsin/well) in the presence or absence of heterotrimeric Gt.
Lysate (50 μl) from each clone was added and incubated in the light. After 45 minutes, 1 μM heterotrimeric Gt was added and the solution incubated for 30 minutes. Anti-MBP antibody was added, followed by goat anti-rabbit alkaline phosphatase conjugated antibody and substrate. The color was allowed to develop.

Where no end group is shown, it is not given here.

T2 sequence (P02699 whole entry): as above

Take “LQLNRNEYYLV (also: fused to MBP) [PAR-13, MBP clone, linker VRPS]”: the “binding affinity for PAR1 (in words)” value in experiment [1] is recorded as “high affinity binding”.

Consider “LQQKLKEYSLV (also: fused to MBP) [PAR-23, MBP clone, linker LSRS]”, for which the “specificity (in words)” value in experiment [1] (PAR1 versus Gq-coupled muscarinic M1 receptor) is “low specificity”. For the same substance, the “binding affinity for PAR1 (in words)” value in experiment [1] was “low affinity”.

The term IC50 denotes the concentration that inhibits the measured activity by half. Turning to “MBP-Gαq: purified maltose binding protein fused to native Gαq C-terminal peptide”, the IC50 in experiment [2] is 214 nM.

Take “QRLNVGEYNLV (also: fused to MBP) [PAR-34, MBP clone, linker LPQM]”: in experiment [1], the “binding affinity for PAR1 (in words)” value was “high affinity binding”.

“heterotrimeric Gt: heterotrimeric G protein, transducin (Gt) [reference compound]”: in experiment [3], the “stabilization of MII (in words)” value is on record as “stabilize the active form of rhodopsin”. Also, the “effect on high affinity peptide fusion protein binding to light-activated rhodopsin (in words)” value in experiment [4] is listed as “competitively inhibited”.

Values taken from patent publication US7294472B2, “Method for identifying modulators of G protein coupled receptor signaling” (Caden Biosciences, priority 2001, dated 2007).
